From publication PMC12748987

Legend:
[1] = biological target: GIRK2 homotetrameric channel (mouse GIRK2A) (mouse)
[2] = biological target: GIRK2 homotetrameric channel (mouse GIRK2A) (mouse); remark: listed apart in the source
[3] = biological target: GIRK1/2 heterotetrameric channel (GIRK1 with GIRK2) (not stated | mouse) (UniProt P63251)
[4] = biological target: GIRK1/2HA heterotetrameric channel (GIRK1 with GIRK2HA) (not stated | mouse) (UniProt P63251)
[5] = biological target: GIRK2HA homotetrameric channel (HA-tagged GIRK2) (mouse)
[6] = biological target: GIRK1/2 heterotetrameric channel (GIRK1 with GIRK2) (not stated | mouse) (UniProt P63251); remark: listed apart in the source

Kd, WTM model fit with fixed µ = 0.3 of single-channel Po against Gβ·YFPGγ surface density [1] | Kd, WTM model fit with fixed µ = 0.3 of whole-cell currents of GIRK2 or GIRK2HA against Gβ·YFPGγ surface density (mean of experiments) [2] | Kd, WTM model fit with fixed µ = 0.44 of whole-cell currents of GIRK2 or GIRK2HA against Gβ·YFPGγ surface density (mean of experiments) [2] | Kd, WTM model fit (µ = 0.3) of whole-cell currents against Gβ·YFPGγ surface density, mean of all experiments [3] | Kd, WTM model fit (µ = 0.3) of whole-cell currents against Gβ·YFPGγ surface density in individual oocytes (Fig. 4b, experiment #4) [4] | Kd, WTM model fit (µ = 0.3) of whole-cell currents against Gβ·YFPGγ surface density in individual oocytes (Fig. 4b, experiment #4) [5] | time constant of the single-exponential decay of channel activity (NPo) after excision of the patch into Gβγ-free bath solution with ATP and Na+ [6] | Substance
17.3 µM | 31 µM | 11 µM | 5.5 µM | 9 µM | 45 µM |  | Gβ·YFPGγ (Gβ1 coexpressed with N-terminally YFP-labeled Gγ2) (from UniProt P62873 1-340; P59768 1-71) (complex)
 |  |  |  |  |  | > 2 min | Gβγ (Gβ1γ2) coexpressed in Xenopus oocytes (from UniProt P62873 1-340; P59768 1-71) (complex)
